Legend:
[1] = target: Paclitaxel-stabilized microtubules (bovine brain αβ-tubulin) (bovine) (UniProt Q6B856)
[2] = target: Paclitaxel-stabilized microtubules (bovine brain αβ-tubulin) (bovine) (UniProt Q6B856); assay: co-sedimentation; 3 μM Cin8, 1 μM microtubules, no added nucleotide or 1 mM ATP, ADP or AMPPNP, low and high ionic strength; SDS-PAGE of supernatant and pellet

K0.5,MT of the microtubule-stimulated steady-state ATPase (NADH coupled assay), 21 mM ionic strength [1]: 1.3 µM
stoichiometry N [2]: 1.3
Substance: Cin8-His-Δ99 (Cin8 motor domain in which the 99-residue loop 8 insert is substituted with the 7-residue loop 8 of Kip1) (from UniProt P27895 70-535) (domain or fragment)
